This note sets out measurements from the supplement of paper PMC12042874.

The nature of this series: amyloid nucleation score (Sup35N fusion, yeast selection) (log enrichment); library NNK2; higher = more nucleation; inactive = no reads after selection. An outline of the steps: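 The nucleation score is the DiMSum log enrichment of output over input reads, centred on the mode score of non-aggregating sequences. Only sequences with 100 or more input reads were scored, using Illumina sequencing of input and output plasmid inserts. Psi-negative yeast expressing Sup35N fused to peptides of 20 random codons were induced 24 hours with 100 μM copper sulfate and grown 7 days at 30°C on medium lacking adenine and uracil.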

± gives the uncertainty stated by the source.

KVSSLNCCVRCLDTMCAFQV returned an amyloid nucleation score of 6.15 ± 0.088. Consider FLYNFSHIRFVMYNRNESCF, for which the amyloid nucleation score came to 3.48 ± 0.13. In the case of TSHRWAMGSRYEVHIAVGMF it was 1.13 ± 0.26. With ALLVRVIRYRGSRNESRCPA, the amyloid nucleation score worked out at 1.42 ± 0.34. As to LLFMVIFDRECRVIIHCGTM, the amyloid nucleation score was -0.21 ± 0.34. Turning to SFDCKVMVFCAMRYNLRIMS, the amyloid nucleation score was -1 ± 0.5. In the case of ICGCCARIHNYNISVSACLT it was 4.3 ± 0.052; in that of WGWEIFIVWTWLRGVILYVL, -0.602 ± 1.1. In the case of VMPIFNYWV it was 0.121 ± 0.3. On to FIILI, for which the amyloid nucleation score is -1.29 ± 0.54. The substance MLCRNIHRCKMHREPLGVFH returned an amyloid nucleation score of 0.578 ± 0.81.

Substance KASTRQ showed an amyloid nucleation score of 1.51 ± 0.34. In the case of LKSEALDGAADCRGCYSGPL it was 0.374 ± 0.64; in that of SCGVDCSVSGC, 0.903 ± 0.57; in that of VYTFK, 0.667 ± 0.66. Take LFSCGKSMQLVMWYGLSFCG: the amyloid nucleation score turned out to be 0.306 ± 0.37. The substance CDSDSLGVTYVDDDCGYNYC came in with an amyloid nucleation score of -1.03 ± 0.55. In the case of YNLSVFQVITAPHEGDNRAW it was 4.55 ± 0.049. Substance ALGHIQLKLHCWDYGKRCAS gave an amyloid nucleation score of 0.623 ± 0.25. For the substance TRGITCRLAYLQSLVNE, the amyloid nucleation score turned out to be 0.383 ± 0.43. Turning to YIPNDCTTRDCLTYMMSWMF, the amyloid nucleation score is -0.077 ± 0.63. For the substance VYGPTVNFK, the amyloid nucleation score came to 0.761 ± 0.25.

Regarding HWVCKIILRGHSSMYCSDGC, the amyloid nucleation score was 3.35 ± 0.11. On to QRFRHRKTQISVFS, for which the amyloid nucleation score is -0.876 ± 1.1. SNIYRCPVMSIRSVSHS gave an amyloid nucleation score of 0.536 ± 0.66. WATFRPD showed an amyloid nucleation score of 0.31 ± 0.54.

For SYYLALYLMEYFYLDDARLN, the amyloid nucleation score is -1.2 ± 1. Regarding SVVVCWGKFLSGVGAWLFHS, the amyloid nucleation score result was “inactive”. Turning to CMKKWFS, the amyloid nucleation score worked out at 3.85 ± 0.075. Turning to NVLRRFNCWRYESGFSNFVN, the amyloid nucleation score was -1.38 ± 0.36. The substance LMTSYLRSPDSAPETLRE registered an amyloid nucleation score of -0.484 ± 0.49.

TLTSSCVNFINMLHEIFRYS returned an amyloid nucleation score of -0.623 ± 1. RNVACFSAVT: the amyloid nucleation score was -0.283 ± 0.63. TYYFVVQFI yielded an amyloid nucleation score of 8.284 ± 0.036.

As to FRIIYKWCLMPLMPGCGGM, the amyloid nucleation score entry was “inactive”.

Consider SGESSNCWLMIL, for which the amyloid nucleation score result is “inactive”. Turning to SSIWPIPFYILGVFKVSSVW, the amyloid nucleation score entry is “inactive”. In the case of YGVYVRCYLDGSLWWNFTAW it was “inactive”. In the case of SSYGIFVVGMLGSCRVQSRF it was 3.79 ± 0.041; in that of RPNLLSDILPRGLMAKSMHF, 0.107 ± 0.79.

In turn, GSLAGAKL gave an amyloid nucleation score of -0.588 ± 0.76. SYDIFWILWLASCMLILYII showed an amyloid nucleation score of 2.92 ± 0.099. The substance PGVPP registered an amyloid nucleation score of -1.06 ± 1.1.

On to CIEMFFETVFTKGLSRYACW, for which the amyloid nucleation score is -0.55 ± 0.3. As to DRFVLIVHINRGRV, the amyloid nucleation score stood at 3.86 ± 0.048. With SVIDFLLAYRKDLWCWDLT, the amyloid nucleation score was 0.19 ± 0.8.

FNFVMLYPTPAGSAKFVGCI showed an amyloid nucleation score of 2.85 ± 0.19.

As for SVMFMNSSFQRAT, the amyloid nucleation score is -0.586 ± 0.42. Consider GSELMTSLSFVCGHVAAPAD, for which the amyloid nucleation score is 0.669 ± 0.54. Substance FSFYLTQSKSALIIDVAQRI showed an amyloid nucleation score of -0.231 ± 0.49.

Turning to FIMYFVASRVNSYSSTLRVN, the amyloid nucleation score result was “inactive”.

As for KTFLVDSLCNRL, the amyloid nucleation score entry was “inactive”.

EWVMKSWV: the amyloid nucleation score is -0.578 ± 1.1.

YLVPFWVVDCFDGLD returned an amyloid nucleation score of 0.072 ± 1.1.

Consider ASDVKGSANDVVGFWVLPDQ, for which the amyloid nucleation score is 5.907 ± 0.049. The substance VIHMVPMTEGGLPCTV returned an amyloid nucleation score of -0.139 ± 0.56.

HGNWGLLYLTDALVKMIQDV registered an amyloid nucleation score of -0.311 ± 0.3. NGCSFRGNCCDSGERNVVEV: the amyloid nucleation score came out at 0.071 ± 0.6. Substance TSISLLFWCVYSLASVGFSA registered an amyloid nucleation score of -0.586 ± 1.1. Turning to DAWSCRRLF, the amyloid nucleation score entry is “inactive”.

On to LCYMGRVA, for which the amyloid nucleation score is 0.224 ± 0.34.

On to AEAYGTSSRRSCCRGRVV, for which the amyloid nucleation score turned out to be 0.476 ± 0.5. As for SVLLVSLDFSPITGYSKGGL, the amyloid nucleation score turned out to be 2.72 ± 0.082. TSQLSFYKHSLVY: the amyloid nucleation score entry was “inactive”. STSVTMHSLSDF yielded an amyloid nucleation score of -1.02 ± 0.78. In the case of GEINENGKLCGGRAQGTGTY it was -0.392 ± 0.63; in that of FRLNMAYDEPVCLMGSVHNV, -1.38 ± 0.54; in that of KSTVIMSDTFLR, -0.271 ± 1.

YITFSDRLWTLLLWCRILWL gave an amyloid nucleation score of -0.002 ± 1. In the case of YHYGNGVAWDMTRKPRHHFV it was -0.243 ± 0.41; in that of IVACGCVSVSRRSLP, 3.09 ± 0.059; in that of IANWSKYSASTCLVMTHAMA, -0.302 ± 0.28. On to RYGVRSQCYGVTKRLFAITA, for which the amyloid nucleation score is 0.951 ± 0.33. In the case of WVVVDNHLS it was -0.234 ± 0.65; in that of VIAFYVAFFNRTRVSYRSLW, 4.22 ± 0.06; in that of STCSTGHRSLRTKKRNSILS, 4.34 ± 0.096.

Turning to NRFAHNALVAL, the amyloid nucleation score is 4.08 ± 0.062. In the case of TSNLFHLYGACRRYMGRCSA it was 0.434 ± 0.66; in that of LLVAKYNLEYRMLSCSDNRQ, 3.1 ± 0.17; in that of WDNWDPVAAP, “inactive”. For the substance CLSRLNVLWYSPFKHFILEC, the amyloid nucleation score is -0.267 ± 0.45. The substance STCGEAVKTFLVGLFELFMV came in with an amyloid nucleation score of 0.452 ± 0.66. For FILDGSPVYWAIWKGG, the amyloid nucleation score was -1.46 ± 0.78. As to NCFYALYPSQDWRMTKLELS, the amyloid nucleation score is -0.106 ± 0.23. For AAAHLH, the amyloid nucleation score was -0.75 ± 0.76. FGCNSSGWNVKIPSGGLGNE showed an amyloid nucleation score of -0.647 ± 0.53. With GVLMIYYWVSMCLYALLIVF, the amyloid nucleation score entry is “inactive”.

With TAGLYDKTLFYSFYLRYPKF, the amyloid nucleation score result was “inactive”. The substance YFLVKFSSNTFIVWTHRYFQ displayed an amyloid nucleation score of 0.057 ± 1.1.

With VSYPVCMGKWHGSTRILNRH, the amyloid nucleation score stood at 0.669 ± 0.27.

Turning to WFISPKDKGRASIHLNEYRW, the amyloid nucleation score was 3.97 ± 0.045.

The substance CLNCI displayed an amyloid nucleation score of -0.497 ± 1. Turning to LATWLP, the amyloid nucleation score is 0.871 ± 0.21. As to VYTRMKITVGFKYLYN, the amyloid nucleation score was determined as 1.24 ± 0.45. In the case of TVFFIFHLLVYLPMFTRALD it was 8.55 ± 0.043; in that of YSSTTITFYNWDRVTSRRLA, -0.832 ± 0.44.

Substance FLMYK yielded an amyloid nucleation score of -0.75 ± 0.76.

VSLNCKRRALMTWYVKGLFG showed an amyloid nucleation score of -0.073 ± 0.22.

The substance RGLTKLSVLFRQNKESYNIV gave an amyloid nucleation score of -0.521 ± 0.76.

In turn, GVTKNCSC yielded an amyloid nucleation score of -0.036 ± 0.63. In the case of WLLVYYISARVQQSADNKRW it was -1.02 ± 1; in that of DNTLLALVGM, 1.57 ± 0.58; in that of AVCWYNVQVRSSRNLYGQPK, 0.221 ± 0.5.

For FAGWIYGCTDRMVCLCSGGF, the amyloid nucleation score entry was “inactive”. In the case of VSKLNLLNIHCAKPFLLEL it was 3.38 ± 0.13; in that of STVPRVSLLLAPCQVIVAWE, 5.449 ± 0.05; in that of WLGRCVNNNLNDVCDFQT, -1.17 ± 0.39. Substance CSAITGY registered an amyloid nucleation score of 0.564 ± 0.23. In the case of VHLGRV it was -0.678 ± 0.48.

VVGTPCL registered an amyloid nucleation score of 0.542 ± 0.41. YISVKMRSGRTSTLSDCVKA: the amyloid nucleation score was 3.83 ± 0.076. Substance VCVLKGDGGL displayed an amyloid nucleation score of 0.339 ± 0.55. Substance LSDFEIFTLTIHSHLYHN had an amyloid nucleation score of 1.66 ± 0.24. For the substance CSQVALLNKLFLPG, the amyloid nucleation score is -1.14 ± 0.38. KRRSQIRMTNDNLASVNMKN returned an amyloid nucleation score of 1.43 ± 0.096. As to ELVRDASECRYIIVCLNSVA, the amyloid nucleation score was -0.047 ± 0.65. As for FISSSYSKEFSIYEFIDIFR, the amyloid nucleation score is -0.539 ± 0.54. Regarding GFMFVFWKFKHGLMGPCSRD, the amyloid nucleation score amounted to 0.684 ± 0.23.

As for DSWSIMWSLC, the amyloid nucleation score is -0.272 ± 1.1. Regarding WFYKVSSA, the amyloid nucleation score is -0.481 ± 0.55.

Turning to LMSQCT, the amyloid nucleation score is -0.926 ± 0.64. Take YLSDNLIAFWIVHNQWMIMA: the amyloid nucleation score amounted to 6.005 ± 0.035. In the case of VVNCCGWMVPVGPSHW, the amyloid nucleation score was determined as 10.32 ± 0.035. In the case of VRGPIGHLCICSAMSLGWIH it was 2.67 ± 0.11; in that of LDYDKNKFWAQHLYSKQSSL, 0.805 ± 0.23. In the case of VLRNKVVCSYQLYLRWFGKD it was 1.64 ± 0.37; in that of ATCSPSVSRVLGLCSWECFR, -0.382 ± 0.76. Take SFSNTAAYAKEYCRSYWVLV: the amyloid nucleation score result was “inactive”.

Substance SLTSSSICHRPHTCTVCV showed an amyloid nucleation score of -0.364 ± 0.33.

FLFQWLLEKPYFYPAFCKCK registered an amyloid nucleation score of 4.49 ± 0.061. YLFDLVFILEQYFWL gave an amyloid nucleation score of 2.85 ± 0.049. As for GNYISICESFF, the amyloid nucleation score was -0.177 ± 1. GSPWGSHGRHGLKHTKALKA came in with an amyloid nucleation score of 1.1 ± 0.25.

Turning to NLSNELSCI, the amyloid nucleation score entry is “inactive”. Substance HSNLVT came in with an amyloid nucleation score of 0.234 ± 0.41. Substance RSPRHQNQDPRLKGRNARSP gave an amyloid nucleation score of 2.49 ± 0.086. The substance FRAPFTDAGPWSSSGNFLRL returned an amyloid nucleation score of -0.151 ± 0.37.

For NRKSSHYSKNCRTLLHTS, the amyloid nucleation score was -0.097 ± 1.1.

As to AVIDIIKRTSCTCDESCCIR, the amyloid nucleation score worked out at 0.415 ± 0.31. In the case of DGSHYFIVRDPVNSCLSSWV it was -0.668 ± 0.36.
